# ± gives the standard error. Variants at the floor of the assay were thinned out.
# B1: glmS ribozyme (parent)
# chain: AUAAAAGCGCCAGAACUACAGAAAUGUAGUUGACGAGGAGGAGGUUUAUCGAAUUUUCGGCGGAUGCCUCCAAA
# Variants of: B1
# Assay: self-cleavage kobs at 2500 uM GlcN6P; higher = faster cleavage; RNA array
# Details: with glucosamine-6-phosphate
# Method in brief: (§1)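 Tracking of barcoded ribozyme variants used a hybridised Cy3 probe at 37 °C, after in situ transcription by E. coli RNA polymerase on sequenced MiSeq chips. The flowed solution held 40 μM to 10 mM glucosamine-6-phosphate in HEPES/KCl/Mg(OAc)2 buffer, and imaging ran over ~14 h. kobs was taken from exponential decay fits of normalised per-tile medians, and kcat and KM from weighted Michaelis–Menten fits.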
row,Variant,self-cleavage kobs at 2500 uM GlcN6P
1,U45A A52U C67A,8.33e-05 ± 2.5e-05 s⁻¹
2,G13U A48G U57G,< 1e-05 s⁻¹
3,A6U U31G A36U,< 1e-05 s⁻¹
4,C10A A12C G51U,< 1e-05 s⁻¹
5,G41C G43U G59A,< 1e-05 s⁻¹
6,G32C A36C A39U U69G,< 1e-05 s⁻¹
7,C16A G43A C58U,< 1e-05 s⁻¹
8,C11A A14C A42C U55C A64G,< 1e-05 s⁻¹
9,C11U U30A G37C U49A,< 1e-05 s⁻¹
10,G9U U31C G43C C67U,< 1e-05 s⁻¹
11,G37U G43C A48C C61U G63U,< 1e-05 s⁻¹
12,A15G U56G C58U,3.75e-05 ± 1.4e-05 s⁻¹
13,A39G U54A C71G,0.00114 ± 0.00046 s⁻¹
14,A12G G62A U69A C70A,0.000135 ± 5.1e-05 s⁻¹
15,A39C G41C G66U,< 1e-05 s⁻¹
16,U31C G35A C71U,< 1e-05 s⁻¹
17,A6G A14G G40A,3.86e-05 ± 1.1e-05 s⁻¹
18,G13A U49C C50U,< 1e-05 s⁻¹
19,G29C A64G G66U,4.43e-05 ± 1.8e-05 s⁻¹
20,C16U A39U U46C A64G C71G,9.88e-05 ± 3.4e-05 s⁻¹
21,G35A U56A C68G,< 1e-05 s⁻¹
22,C10G U47C A53U U54A C70U,< 1e-05 s⁻¹
23,A15C A42G U56A G60U,< 1e-05 s⁻¹
24,A36C G41A U56G G60A C68U,< 1e-05 s⁻¹
25,C11G G26U G43C,< 1e-05 s⁻¹

row,Variant,self-cleavage kobs at 2500 uM GlcN6P
1,A6U U30A A33C U45G C58A,< 1e-05 s⁻¹
2,A14G A39U C71G,0.00129 ± 0.00041 s⁻¹
3,C11A G29U A33C G63C,< 1e-05 s⁻¹
4,G40A U47C C58U,< 1e-05 s⁻¹
5,G40U G41A C67A C70U,0.000143 ± 3.7e-05 s⁻¹
6,U30C G66A C67G,4.46e-05 ± 1.2e-05 s⁻¹
7,C10U G35U G43C,< 1e-05 s⁻¹
8,G7A C8A U56G,< 1e-05 s⁻¹
9,A15G G44U U54C,0.00016 ± 3.1e-05 s⁻¹
10,A36G U46A C70A,< 1e-05 s⁻¹
11,G38A C50A A64C,< 1e-05 s⁻¹
12,G9U G40A G60U,< 1e-05 s⁻¹
13,A48G C58G G63A C70A,7.77e-05 ± 3.7e-05 s⁻¹
14,C8A G41A G44U,< 1e-05 s⁻¹
15,A6G A36U A48U C50U,< 1e-05 s⁻¹
16,A6G G40A A48G A53G C67U,< 1e-05 s⁻¹
17,C16G U49G U55A,5.61e-05 ± 2.1e-05 s⁻¹
18,U54A G63A C70U,< 1e-05 s⁻¹
19,A1U A15G A36U,< 1e-05 s⁻¹
20,A14G U45G C71U,0.0021 ± 0.0006 s⁻¹
21,G38U G43A U47C C67U,< 1e-05 s⁻¹
22,G37U A42C U47A A48U U56A,< 1e-05 s⁻¹
23,A14C A39C U65G,< 1e-05 s⁻¹
24,G40C A52G U55G,4.2e-05 ± 1.1e-05 s⁻¹
25,C11G U30C G37U,< 1e-05 s⁻¹

row,Variant,self-cleavage kobs at 2500 uM GlcN6P
1,C11U G40A U46A G59C,< 1e-05 s⁻¹
2,G35U U45C G51C G59U,< 1e-05 s⁻¹
3,C11U C16A G44U G60A,< 1e-05 s⁻¹
4,C10U G35C G38A A52C G62U,< 1e-05 s⁻¹
5,C16U A53U A64U,4.5e-05 ± 2.3e-05 s⁻¹
6,A6G G35U G51U C58U,< 1e-05 s⁻¹
7,A15U A39C U45A,0.000454 ± 0.00014 s⁻¹
8,A14G G43C U57C,< 1e-05 s⁻¹
9,A6C U55G C71U,6.13e-05 ± 2e-05 s⁻¹
10,A33C G35A U56A,< 1e-05 s⁻¹
11,A33C G51A A53U,< 1e-05 s⁻¹
12,C11U G44U C67G,0.00425 ± 0.0019 s⁻¹
13,G32U G41A C58U,9.05e-05 ± 2.6e-05 s⁻¹
14,G32A G40A U69G,< 1e-05 s⁻¹
15,C10G G43A A52G A53C C70U,< 1e-05 s⁻¹
16,A6C A48G A52G,< 1e-05 s⁻¹
17,A14C U54G C58G C68U,4.09e-05 ± 1.3e-05 s⁻¹
18,C16U A52G A53G C61U,< 1e-05 s⁻¹
19,U55G C70U C71G,7.27e-05 ± 1.7e-05 s⁻¹
20,G9C G13U A48G,< 1e-05 s⁻¹
21,G40A U47C U54C,0.00058 ± 0.00013 s⁻¹
22,C10A G29A A33G A48U,< 1e-05 s⁻¹
23,C11U A52C C68U C71G,0.0003 ± 0.00014 s⁻¹
24,C34A A48U C68A C71G,< 1e-05 s⁻¹
25,G13A U54G C68A,7.33e-05 ± 2.7e-05 s⁻¹

row,Variant,self-cleavage kobs at 2500 uM GlcN6P
1,G37C A42C A48C A64U,< 1e-05 s⁻¹
2,G13C U30C C71G,4.16e-05 ± 2.1e-05 s⁻¹
3,C34U A39C C68U,< 1e-05 s⁻¹
4,A15G U30G A64G,0.00272 ± 0.00073 s⁻¹
5,G37A A64C C67G,< 1e-05 s⁻¹
6,G9C G32C C70A,< 1e-05 s⁻¹
7,G32U U55C,0.000307 ± 7.3e-05 s⁻¹
8,G37A G38C U56G C70G,6.06e-05 ± 1.5e-05 s⁻¹
9,G9C U49A U54A C67A,< 1e-05 s⁻¹
10,G7C A14U G32U A36G G43C,< 1e-05 s⁻¹
11,A15C G32A U69A,0.000103 ± 3.2e-05 s⁻¹
12,U31C G37A G59A C61U G66A,< 1e-05 s⁻¹
13,G38U U55A G62A U69G,0.0012 ± 0.00058 s⁻¹
14,A15C G35U C70G,< 1e-05 s⁻¹
15,U30C G40A G43A C68A,< 1e-05 s⁻¹
16,A14U U46A A52U C58A,< 1e-05 s⁻¹
17,U30A U46G A53U,0.000335 ± 9.7e-05 s⁻¹
18,C11U A12C G32A G41A C68A,< 1e-05 s⁻¹
19,C10U G40A G44C C70A,< 1e-05 s⁻¹
20,G7C U46A A52C,< 1e-05 s⁻¹
21,C8U C34U G37A U54C,< 1e-05 s⁻¹
22,A15C A64G C68A,< 1e-05 s⁻¹
23,A6C G41U C58U C68U,< 1e-05 s⁻¹

# Variants of: B1
# Assay: self-cleavage kobs at 10000 uM GlcN6P; higher = faster cleavage; RNA array
# Details: with glucosamine-6-phosphate
# Method in brief: as §1
row,Variant,self-cleavage kobs at 10000 uM GlcN6P
1,U30C G40A A53C C58U,< 1e-05 s⁻¹
2,A39C U55G C70U,0.000211 ± 4e-05 s⁻¹
3,A6U U31G A36U,< 1e-05 s⁻¹
4,G7A A48G U65A,< 1e-05 s⁻¹
5,G32C A36C A39U U69G,< 1e-05 s⁻¹
6,U30G G62A C67A,< 1e-05 s⁻¹
7,A15U G59U C71G,< 1e-05 s⁻¹
8,A39G U45G C70A,0.000127 ± 4.2e-05 s⁻¹
9,A6C C16U G29C C58A,< 1e-05 s⁻¹
10,A6C G9C C50A C58A A64U C70G,< 1e-05 s⁻¹
11,A12U G44A A52U,4.81e-05 ± 2e-05 s⁻¹
12,A15U C50A G51A A53G,< 1e-05 s⁻¹
13,A36C U46A C58A,< 1e-05 s⁻¹
14,C34A A36C G37U U69G,0.000153 ± 3.2e-05 s⁻¹
15,A12G U30G U47C U49C,< 1e-05 s⁻¹
16,C50G G62C C70A,0.000153 ± 4.6e-05 s⁻¹
17,U57C C58A C70U,3.37e-05 ± 1.7e-05 s⁻¹
18,A33C G38U C68U,< 1e-05 s⁻¹
19,G13C G40A,2.64e-05 ± 9.8e-06 s⁻¹
20,A15C A36C C67A,< 1e-05 s⁻¹
21,U49C G51U C70G,< 1e-05 s⁻¹
22,G29U G38A A42G U47G C71U,< 1e-05 s⁻¹
23,A36C G41A U56G G60A C68U,< 1e-05 s⁻¹
24,C11U A52G G63C U69G,8.28e-05 ± 1.9e-05 s⁻¹
25,C10G A39U A48C,< 1e-05 s⁻¹

row,Variant,self-cleavage kobs at 10000 uM GlcN6P
1,C16A G35U G60U,< 1e-05 s⁻¹
2,C11U G29A A39C,3.89e-05 ± 1.6e-05 s⁻¹
3,A14C G41C,3.51e-05 ± 1.1e-05 s⁻¹
4,A33U G62U C71A,< 1e-05 s⁻¹
5,A14U G35C G41A U46A,< 1e-05 s⁻¹
6,C16G U47A U56A U65G,0.000338 ± 9.1e-05 s⁻¹
7,G32U A39G U69A,0.000121 ± 3.2e-05 s⁻¹
8,A36C G38C A64C,< 1e-05 s⁻¹
9,A12G C16A G29U,0.000458 ± 9.3e-05 s⁻¹
10,G13A G43U U45G,6.53e-05 ± 2.3e-05 s⁻¹
11,G26U U49G U56A,0.00027 ± 6.8e-05 s⁻¹
12,G35A U54G G62C,< 1e-05 s⁻¹
13,G29C U46A,7.43e-05 ± 1.7e-05 s⁻¹
14,A14G U30G U47C,0.00168 ± 0.00041 s⁻¹
15,C8U U30G A39G G43U,< 1e-05 s⁻¹
16,A12G A14C C50G C71A,0.000133 ± 3.2e-05 s⁻¹
17,C16U G29C G35U A39G,< 1e-05 s⁻¹
18,A33U G41U U49A A52U U69A,< 1e-05 s⁻¹
19,G29U G37A C71U,0.000169 ± 4e-05 s⁻¹
20,C11U G32U G35U A64U,< 1e-05 s⁻¹
21,A33C G35A U46G C50U U56G C71A,< 1e-05 s⁻¹
22,U31A C34U G44A,< 1e-05 s⁻¹
23,A12G G41U C70U,0.00122 ± 0.00022 s⁻¹
24,U2G U47C,0.00421 ± 0.0012 s⁻¹
25,U30G U55G C70G,4.53e-05 ± 1.9e-05 s⁻¹

row,Variant,self-cleavage kobs at 10000 uM GlcN6P
1,G32C A36U U69G C70A,0.000103 ± 2.4e-05 s⁻¹
2,A15U G44U,3.08e-05 ± 1.4e-05 s⁻¹
3,G32A G40A U69G,< 1e-05 s⁻¹
4,U31G G43C U45G,0.000273 ± 8.2e-05 s⁻¹
5,A14C U54G C58G C68U,4.43e-05 ± 2e-05 s⁻¹
6,G9C C10G A52U C71A,< 1e-05 s⁻¹
7,A6U G7U G9C,< 1e-05 s⁻¹
8,U55G C70U C71G,0.000142 ± 3.8e-05 s⁻¹
9,G29A C58U C70U,5.99e-05 ± 1.7e-05 s⁻¹
10,A6G G9U G35U G38A G40A,< 1e-05 s⁻¹
11,A64U G66C,4.03e-05 ± 1.2e-05 s⁻¹
12,G13U G40A G66C C71A,2.79e-05 ± 1.3e-05 s⁻¹
13,A64G U69C,0.000688 ± 0.00018 s⁻¹
14,G7C A14U U47A,< 1e-05 s⁻¹
15,C34A A48U C68A C71G,< 1e-05 s⁻¹
16,C11G A42U C50G C67U,0.000569 ± 0.00021 s⁻¹
17,C11U U69C,0.000482 ± 9.2e-05 s⁻¹
18,A39U U55C U65C,0.00435 ± 0.00052 s⁻¹
19,G32U U55C,0.000584 ± 6.9e-05 s⁻¹
20,G13C A14G G41U,6.44e-05 ± 1.7e-05 s⁻¹
21,U31C G37A G59A C61U G66A,< 1e-05 s⁻¹
22,A12G G29A G63A,< 1e-05 s⁻¹
23,G37C U55G,3.62e-05 ± 8.4e-06 s⁻¹
24,G37C U55A,4.97e-05 ± 1e-05 s⁻¹
25,G9U G41U C58A G60C,< 1e-05 s⁻¹
